We go through ten molecules from article PMC6851490, “Target highlights in CASP13: Experimental target structures through the eyes of their authors” (Proteins, 2019).

For one series, the target named is T1, Bd2924 (Bdellovibrio bacteriovorus, UniProt Q6MJ59).
T1 construct: crystal structure residues 3 to 505; homo-tetramer (dimer of dimers)
T1 sequence (Q6MJ59 3-505): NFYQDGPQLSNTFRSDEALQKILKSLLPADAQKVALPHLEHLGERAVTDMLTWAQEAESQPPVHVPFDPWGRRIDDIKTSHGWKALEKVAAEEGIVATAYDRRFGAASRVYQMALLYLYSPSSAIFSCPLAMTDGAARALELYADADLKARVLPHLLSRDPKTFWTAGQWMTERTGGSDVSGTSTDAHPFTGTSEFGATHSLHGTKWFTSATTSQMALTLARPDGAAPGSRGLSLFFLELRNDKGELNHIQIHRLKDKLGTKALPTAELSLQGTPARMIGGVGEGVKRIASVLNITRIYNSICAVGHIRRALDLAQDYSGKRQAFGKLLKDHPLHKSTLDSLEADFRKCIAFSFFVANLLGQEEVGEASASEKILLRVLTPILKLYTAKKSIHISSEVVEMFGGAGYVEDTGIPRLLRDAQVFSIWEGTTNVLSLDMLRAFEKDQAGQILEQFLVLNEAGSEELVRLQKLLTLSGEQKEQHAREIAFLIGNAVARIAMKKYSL
Nature of the series: X-ray crystal structure, […] Å. It counts as binding. The settings on record: without C10-CoA; one FAD per monomer at the dimer interface.

Series [1] addresses Afp7, tube initiator of the antifeeding prophage (AFP) (Serratia entomophila). Nature of the series: cryo-EM structure; needle of the AFP particle, threefold symmetric, 3.4 Å, PDB 6RBK.
The target in series [2] is Afp8, needle protein of the antifeeding prophage (AFP) (Serratia entomophila). The description is as above.
Series [3] addresses Afp16, cap protein of the antifeeding prophage (AFP) (Serratia entomophila). The series can be described thus: cryo-EM structure; apical end cap of the AFP particle in the extended state, sixfold symmetric, 3.3 Å, PDB 6RAP.
Series [4] addresses Bd2924, putative acyl-CoA dehydrogenase (ACAD) from B. bacteriovorus (B. bacteriovorus). The series can be described thus: SEC; Bd2924 in solution, size exclusion chromatography. A general note: SEC sorts molecules by how far they enter the pores of the column.
For series [5] the target is unchanged. The series can be described thus: crystal structure; Bd2924 with FAD, with and without C10-CoA, PDB 6SD8 and 6SDA.
In series [6] the target is CdiI^Kp342 immunity protein (Klebsiella pneumoniae 342). Nature of the series: crystal structure; CdiA-CT•CdiI complex from K. pneumoniae 342, PDB 6CP9, 2.55 Å.
The target of series [7] is Pentafunctional AROM complex from Chaetomium thermophilum (Chaetomium thermophilum). Nature of the series: crystal structure; CtAROM, X-ray, 3.00 Å, no PDB id.
The target is the same in series [8]. Nature of the series: not stated; CtAROM before crystallisation; homodimer of about 340 kDa; method not given.
Series [9] concerns the target gp37 (distal part) of the Salmonella phage S16 long tail fiber (Salmonella phage S16). Nature of the series: crystal structure; distal part of gp37 connected to gp38, phage S16, PDB 6F45, 1.70 Å.
Series [10] concerns the molecule itself. Nature of the series: crystal structure; recombinant AxlA with cleaved xyloglucan oligosaccharide, PDB 6DRU, 2.7 Å; quaternary assembly examined with EPPIC.
Series [11] deals with the molecule itself. The series can be described thus: crystal structure; MAJIN-TERB2 core complex, PDB 6GNX, X-ray, 2.90 Å.

For `Cc1cc2nc3c(=O)[nH]c(=O)nc-3n(C[C@H](O)[C@H](O)[C@H](O)COP(=O)(O)OP(=O)(O)OC[C@H]3O[C@@H](n4cnc5c(N)ncnc54)[C@H](O)[C@@H]3O)c2cc1C` [FAD], the “X-ray crystal structure, 1.51 Å” value at Bd2924 is given as “A single FAD molecule binds per monomer in a crevice located at the dimer interface”.

Consider “Afp7, tube initiator of the antifeeding prophage (AFP) (natural protein)”, for which the stoichiometry N (commonly the number of molecules, sites or subunits per partner or assembly) in [1] was 6. As for “Afp8, needle protein of the antifeeding prophage (AFP) (natural protein)”, the stoichiometry N in [2] is 3. As to “Afp16, cap protein of the antifeeding prophage (AFP) (natural protein)”, in [3], the stoichiometry N amounted to 6. On to “Bd2924, putative acyl-CoA dehydrogenase (ACAD) from B. bacteriovorus (enzyme)”, for which the stoichiometry N in [4] and in series [5] was 4 in each case.

“CdiI^Kp342 immunity protein (natural protein)” returned a stoichiometry N in series [6] of 2. Take “Pentafunctional AROM complex from Chaetomium thermophilum (enzyme)”: the stoichiometry N in series [7] and in series [8] was 2 in each case.

“gp37 (distal part) of the Salmonella phage S16 long tail fiber (domain or fragment)”: the stoichiometry N in series [9] is 3.

B1: α-xylosidase from Aspergillus niger (AxlA), glycoside hydrolase family 31 (enzyme, UniProt G3XMN9 19-736, looked up)
chain: TYFAPNSTGLRIQHGFETILIQPFGYDGFRVRAWPFRPPSGNEISFIYDPPIEGYEDTAHGMSYDTATTGTEPRTLRNGNIILRTTGWGGTTAGYRLSFYRVNDDGSETLLTNEYAPLKSLNPRYYYWPGPGAEFSAEFSFSATPDEQIYGTGTQQDHMINKKGSVIDMVNFNSYIPTPVFMSNKGYAFIWNMPAEGRMEFGTLRTRFTAASTTLVDYVIVAAQPGDYDTLQQRISALTGRAPAPPDFSLGYIQSKLRYENQTEVELLAQNFHDRNIPVSMIVIDYQSWAHQGDWALDPRLWPNVAQMSARVKNLTGAEMMASLWPSVADDSVNYAALQANGLLSATRDGPGTTDSWNGSYIRNYDSTNPSARKFLWSMLKKNYYDKGIKNFWIDQADGGALGEAYENNGQSTYIESIPFTLPNVNYAAGTQLSVGKLYPWAHQQAIEEGFRNATDTKEGSACDHVSLSRSGYIGSQRFCSMIWSGDTTSVWDTLAVQVASGLSAAATGWGWWTVDAGGFEVDSTVWWSGNIDTPEYRELYVRWLAWTTFLPFMRTHGSRTCYFQDAYTCANEPWSYGASNTPIIVSYIHLRYQLGAYLKSIFNQFHLTGRSIMRPLYMDFEKTDPKISQLVSSNSNYTTQQYMFGPRLLVSPVTLPNVTEWPVYLPQTGQNNTKPWTYWWTNETYAGGQVVKVPAPLQHIPVFHLGSREELLSGNVF
notes: AxlA, Aspergillus niger, UniProt G3XMN9; also called T1009; source: recombinant
Regarding B1, the “stoichiometry N” value in series [10] came out at 2.

B2: MAJIN (core of the human MAJIN-TERB2 complex) (domain or fragment)
chain: GSMSLKPFTYPFPETRFLHAGPNVYKFKIRYGKSIRGEEIENKEVITQELEDSVRVVLGNLDNLQPFATEHFIVFPYKSKWERVSHLKFKHGEIILIPYPFVFTLYVEMKWFHE
notes: MAJIN, human, the part in the MAJIN-TERB2 core complex; also called T0980s1; H0980 subunit A
B2: the “stoichiometry N” value in [11] was 2.
